For experiment [1], the target named is T1, hERG1 potassium channel expressed on hERG1-transfected HEK 293 cells (Homo sapiens (Human)., UniProt Q12809).
T1 construct: human ether-a-go-go-related gene-1 (hERG1, Kv 11.1) potassium channel; cell culture details are in the Supplementary Materials; also called HEK-hERG1; HEK 293 hERG1; source: HEK 293, transfected, on cells
In words: immunostaining of cells or tissue; indirect immunofluorescence on fixed HEK-hERG1 and HEK-Mock cells. Particulars: one partner purified.

Experiment [2] deals with T2, S5-Pore peptide (Homo sapiens (Human).).
T2 construct: peptide of the extracellular S5-P loop of the human hERG1 (Kv 11.1) potassium channel; also called antigenic peptide; raising peptide
T2 chain: EQPHMDSRIGWLHN
As to the kind of experiment: ELISA; S5-Pore peptide as coating antigen; 0.1 to 10 ug of scFv (Alexa488 conjugate at 1 ug); revealed with anti-6xHis antibody then anti-mouse IgG-HRP; OD450. Particulars: both partners purified.

The target in experiment [3] is T2, S5-Pore peptide. As to the kind of experiment: SPR; Biacore T100; S5-Pore peptide amine-coupled to a CM5 chip; scFv flowed at 2.5, 5, 10, 20, 40 ug/ml; contact 120 s, dissociation 600 s, 30 ul/min; 1:1 binding model for scFv-hERG1, two-state reaction model for scFv-hERG1-Cys. The conditions noted are these: both partners purified. (SPR reads the build-up and loss of mass on a sensor chip optically.)

Experiment [4] concerns the target T1, hERG1 potassium channel expressed on …. In words: immunostaining of cells or tissue; direct immunofluorescence with the Alexa 488 conjugate on fixed cells (HEK-hERG1, HEK-Mock; PANC-1 in 2D and as spheroids). Particulars: one partner purified.
Experiment [5] has as its target T3, hERG1 potassium channel endogenously expressed on cancer cell lines (Homo sapiens (Human)., UniProt Q12809).
T3 construct: human ether-a-go-go-related gene-1 (hERG1, Kv 11.1) potassium channel; also called hERG1 on PANC-1 cells; Kv 11.1; source: endogenous, on PANC-1 cells (2D and spheroids); in the viability tests also MDA-MB231, MIAPaCa-2, HCT-116
The experiment is described as above. Particulars: one partner purified.

The text below walks through data of article PMC6201861, “Generation and characterization of novel recombinant anti-hERG1 scFv antibodies for cancer molecular imaging” (Oncotarget, 2018).

T1 sequence (Q12809 whole entry): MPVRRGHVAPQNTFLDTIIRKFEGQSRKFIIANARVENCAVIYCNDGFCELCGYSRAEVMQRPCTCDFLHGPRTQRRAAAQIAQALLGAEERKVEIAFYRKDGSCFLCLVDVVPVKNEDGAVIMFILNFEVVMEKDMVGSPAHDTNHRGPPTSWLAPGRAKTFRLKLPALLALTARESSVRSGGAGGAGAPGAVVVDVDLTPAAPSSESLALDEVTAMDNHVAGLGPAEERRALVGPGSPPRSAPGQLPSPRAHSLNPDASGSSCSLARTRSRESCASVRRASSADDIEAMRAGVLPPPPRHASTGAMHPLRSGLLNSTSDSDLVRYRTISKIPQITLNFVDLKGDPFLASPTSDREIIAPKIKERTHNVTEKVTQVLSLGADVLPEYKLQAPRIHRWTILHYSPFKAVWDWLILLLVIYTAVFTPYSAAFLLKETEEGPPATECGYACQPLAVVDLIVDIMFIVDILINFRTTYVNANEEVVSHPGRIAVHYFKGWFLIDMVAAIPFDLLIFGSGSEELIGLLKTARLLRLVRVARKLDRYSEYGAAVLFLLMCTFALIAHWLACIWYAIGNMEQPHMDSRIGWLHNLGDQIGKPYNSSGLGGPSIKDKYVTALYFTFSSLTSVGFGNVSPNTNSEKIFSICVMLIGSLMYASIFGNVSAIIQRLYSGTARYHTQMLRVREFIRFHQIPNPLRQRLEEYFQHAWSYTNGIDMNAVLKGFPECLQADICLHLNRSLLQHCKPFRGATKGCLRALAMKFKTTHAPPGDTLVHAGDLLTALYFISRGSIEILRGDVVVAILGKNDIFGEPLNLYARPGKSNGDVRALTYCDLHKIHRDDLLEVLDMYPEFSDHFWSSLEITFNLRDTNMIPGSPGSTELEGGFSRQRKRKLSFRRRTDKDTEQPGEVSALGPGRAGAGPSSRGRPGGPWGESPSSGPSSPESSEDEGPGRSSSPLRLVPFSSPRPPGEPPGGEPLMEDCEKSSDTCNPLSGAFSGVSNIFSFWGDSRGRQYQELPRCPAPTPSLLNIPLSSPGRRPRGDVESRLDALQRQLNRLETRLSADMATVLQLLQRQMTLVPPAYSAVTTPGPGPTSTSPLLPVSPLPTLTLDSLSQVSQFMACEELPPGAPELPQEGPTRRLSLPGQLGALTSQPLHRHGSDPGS
T3 sequence (Q12809 whole entry): as above

B1: scFv-hERG1-Cys (scFv, V domains shown)
VH: EVQLQQSGPELVKPGASVKISCKTSGYTFTEYTVHWVKQSHGKSLEWIGGINPNGGTTYNQKFKGKATLTIDKSSSSAFMELRSLTSEDSAVYYCATGWGPDYWGQGTTLTVSS
VL: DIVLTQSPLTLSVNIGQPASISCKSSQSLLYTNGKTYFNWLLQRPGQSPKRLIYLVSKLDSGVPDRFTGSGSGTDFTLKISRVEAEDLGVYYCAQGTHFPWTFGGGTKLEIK
notes: numbers count on: Kabat scheme of the VH; as the linker of m1; as the VL of m1; also called mutagenized scFv-hERG1; scFv-Cys; source: P. pastoris GS115 (pPIC9K), purified from culture supernatant (HisTrap HP)
For orientation: Kd means a measure of binding affinity in units of concentration. The low end stands for tighter binding, the high end for weaker binding. B1: in experiment [1], the binding result is listed as “binds”. Also, the “fold binding against scFv-hERG1 (ELISA O.D.)” value in the experiment with S5-Pore peptide [2] was about 2 fold. This molecule had a Kd with S5-Pore peptide [3] of 61.8 nM.

B2: scFv-hERG1-Cys-Alexa488 (scFv, V domains shown)
VH: EVQLQQSGPELVKPGASVKISCKTSGYTFTEYTVHWVKQSHGKSLEWIGGINPNGGTTYNQKFKGKATLTIDKSSSSAFMELRSLTSEDSAVYYCATGWGPDYWGQGTTLTVSS
VL: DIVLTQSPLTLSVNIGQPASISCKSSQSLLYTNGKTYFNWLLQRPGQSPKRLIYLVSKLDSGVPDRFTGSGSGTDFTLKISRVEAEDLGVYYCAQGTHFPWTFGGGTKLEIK
notes: numbers count on: Kabat scheme of the VH; as the linker of m1; as the VL of m1; Same protein as m2, with the fluorophore
On to B2, for which the binding result in experiment [4] and in experiment [5] was “binds” throughout.
